Assay results published in patent US20160200782A1.

Key:
Assay in all cases: cell-based or functional assay
LKB1(h) (human) = LKB1(h) (human) (UniProt Q15831)
ErbB4(h) (human) = ErbB4(h) (human) (UniProt Q15303)
PKCδ(h) (human) = PKCδ(h) (human) (UniProt Q05655)
PrKX(h) (human) = PrKX(h) (human) (UniProt P51817)
MEK1(h) (human) = MEK1(h) (human) (UniProt Q02750)
Flt1(h) (human) = Flt1(h) (human) (UniProt P17948)
eEF-2K(h) (human) = eEF-2K(h) (human) (UniProt O00418)
Haspin(h) (human) = Haspin(h) (human) (UniProt Q8TF76)
TSSK2(h) (human) = TSSK2(h) (human) (UniProt Q96PF2)
Rsk1(h) (human) = Rsk1(h) (human) (UniProt Q15418)
MAPKAP-K2(h) (human) = MAPKAP-K2(h) (human) (UniProt P49137)
PDGFRα(h) (human) = PDGFRα(h) (human) (UniProt P16234)
PKD2(h) (human) = PKD2(h) (human) (UniProt Q9BZL6)
PKCθ(h) (human) = PKCθ(h) (human) (UniProt Q04759)
MSK1(h) (human) = MSK1(h) (human) (UniProt O75582)
Rse(h) (human) = Rse(h) (human) (UniProt Q06418)
Src(T341M)(h) (human) = Src(T341M)(h) (human) (UniProt P12931)
SAPK2a(h) (human) = SAPK2a(h) (human) (UniProt Q16539)
FGFR2(h) (human) = FGFR2(h) (human) (UniProt P21802)
mTOR(h) (human) = mTOR(h) (human) (UniProt P42345)
HIPK2(h) (human) = HIPK2(h) (human) (UniProt Q9H2X6)
CaMKIIγ(h) (human) = CaMKIIγ(h) (human) (UniProt Q13555)
CHK2(I157T)(h) (human) = CHK2(I157T)(h) (human) (UniProt O96017)
PKBγ(h) (human) = PKBγ(h) (human) (UniProt Q9Y243)
Rsk3(h) (human) = Rsk3(h) (human) (UniProt Q15349)
ALK(h) (human) = ALK(h) (human) (UniProt Q9UM73)
Ron(h) (human) = Ron(h) (human) (UniProt Q04912)
DRAK1(h) (human) = DRAK1(h) (human) (UniProt Q9UEE5)
CLK3(h) (human) = CLK3(h) (human) (UniProt P49761)
Ros(h) (human) = Ros(h) (human) (UniProt P08922)
Mnk2(h) (human) = Mnk2(h) (human) (UniProt Q9HBH9)
PKCα(h) (human) = PKCα(h) (human) (UniProt P17252)
Txk(h) (human) = Txk(h) (human) (UniProt P42681)
Ax1(h) (human) = Ax1(h) (human) (UniProt P30530)
Ab1(M351T)(h) (human) = Ab1(M351T)(h) (human) (UniProt P00519)
CDK1/cyclinB(h) (human) = CDK1/cyclinB(h) (human) (UniProt P06493)
EphB4(h) (human) = EphB4(h) (human) (UniProt P54760)
GCK(h) (human) = GCK(h) (human) (UniProt Q12851)
TSSK1(h) (human) = TSSK1(h) (human) (UniProt Q9BXA7)
mTOR/FKBP12(h) (human) = mTOR/FKBP12(h) (human) (UniProt P42345)
ACK1(h) (human) = ACK1(h) (human) (UniProt Q07912)
Pim-1(h) (human) = Pim-1(h) (human) (UniProt P11309)
PAK5(h) (human) = PAK5(h) (human) (UniProt Q9P286)
SGK(h) (human) = SGK(h) (human) (UniProt O00141)
NEK11(h) (human) = NEK11(h) (human) (UniProt Q8NG66)
Snk(h) (human) = Snk(h) (human) (UniProt Q9NYY3)
TLK2(h) (human) = TLK2(h) (human) (UniProt Q86UE8)
PKA(h) (human) = target: PKA(h) (human)
IRR(h) (human) = IRR(h) (human) (UniProt P14616)
Lck(h) (human) = Lck(h) (human) (UniProt P06239)
GSK3α(h) (human) = GSK3α(h) (human) (UniProt P49840)
EphA8(h) (human) = EphA8(h) (human) (UniProt P29322)
PKCβII(h) (human) = PKCβII(h) (human) (UniProt P05771)
CaMKI(h) (human) = CaMKI(h) (human) (UniProt Q14012)
Ab1(Y253F)(h) (human) = Ab1(Y253F)(h) (human) (UniProt P00519)
MINK(h) (human) = MINK(h) (human) (UniProt Q8N4C8)
ALK4(h) (human) = ALK4(h) (human) (UniProt P36896)

SAPK2a(h) (human), sequence (Q16539 whole entry): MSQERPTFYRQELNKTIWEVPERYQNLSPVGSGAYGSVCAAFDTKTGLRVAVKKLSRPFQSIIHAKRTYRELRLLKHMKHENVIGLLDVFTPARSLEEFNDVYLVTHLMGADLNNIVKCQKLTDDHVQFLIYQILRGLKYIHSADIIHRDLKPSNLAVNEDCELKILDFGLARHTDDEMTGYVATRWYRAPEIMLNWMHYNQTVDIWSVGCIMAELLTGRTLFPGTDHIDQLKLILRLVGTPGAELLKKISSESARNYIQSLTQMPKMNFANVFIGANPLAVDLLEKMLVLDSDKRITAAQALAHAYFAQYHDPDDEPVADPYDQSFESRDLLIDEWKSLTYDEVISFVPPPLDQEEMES
SGK(h) (human), sequence (O00141 60-431 limits assumed): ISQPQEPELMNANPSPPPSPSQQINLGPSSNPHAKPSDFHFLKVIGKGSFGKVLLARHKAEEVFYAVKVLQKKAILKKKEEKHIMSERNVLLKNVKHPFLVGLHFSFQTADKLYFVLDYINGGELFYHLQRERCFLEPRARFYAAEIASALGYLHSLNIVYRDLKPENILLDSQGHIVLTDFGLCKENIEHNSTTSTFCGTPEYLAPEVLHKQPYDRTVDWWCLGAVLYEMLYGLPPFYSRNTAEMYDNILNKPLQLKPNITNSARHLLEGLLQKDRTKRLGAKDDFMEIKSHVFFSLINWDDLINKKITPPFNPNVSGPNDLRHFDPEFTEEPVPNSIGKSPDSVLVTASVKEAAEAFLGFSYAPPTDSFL
Pim-1(h) (human), sequence (P11309 whole entry): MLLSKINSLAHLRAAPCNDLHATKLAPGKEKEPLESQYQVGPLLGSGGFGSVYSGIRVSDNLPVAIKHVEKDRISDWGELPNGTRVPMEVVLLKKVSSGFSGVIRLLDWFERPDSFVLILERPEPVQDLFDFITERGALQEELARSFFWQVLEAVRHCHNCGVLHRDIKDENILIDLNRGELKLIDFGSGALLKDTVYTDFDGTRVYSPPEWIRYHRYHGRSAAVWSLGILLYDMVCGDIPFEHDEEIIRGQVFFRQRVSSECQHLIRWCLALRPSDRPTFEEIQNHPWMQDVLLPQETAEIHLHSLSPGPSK
MINK(h) (human), sequence (Q8N4C8 1-320 limits assumed): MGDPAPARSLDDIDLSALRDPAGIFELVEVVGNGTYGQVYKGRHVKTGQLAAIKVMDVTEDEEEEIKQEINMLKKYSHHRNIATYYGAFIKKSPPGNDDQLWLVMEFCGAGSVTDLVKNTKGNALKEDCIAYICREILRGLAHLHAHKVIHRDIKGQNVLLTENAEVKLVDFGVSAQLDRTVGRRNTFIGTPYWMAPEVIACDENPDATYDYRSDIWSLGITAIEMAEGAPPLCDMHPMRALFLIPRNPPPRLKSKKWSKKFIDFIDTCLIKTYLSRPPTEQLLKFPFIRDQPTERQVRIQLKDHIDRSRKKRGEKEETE
ACK1(h) (human), sequence (Q07912 110-476 limits assumed): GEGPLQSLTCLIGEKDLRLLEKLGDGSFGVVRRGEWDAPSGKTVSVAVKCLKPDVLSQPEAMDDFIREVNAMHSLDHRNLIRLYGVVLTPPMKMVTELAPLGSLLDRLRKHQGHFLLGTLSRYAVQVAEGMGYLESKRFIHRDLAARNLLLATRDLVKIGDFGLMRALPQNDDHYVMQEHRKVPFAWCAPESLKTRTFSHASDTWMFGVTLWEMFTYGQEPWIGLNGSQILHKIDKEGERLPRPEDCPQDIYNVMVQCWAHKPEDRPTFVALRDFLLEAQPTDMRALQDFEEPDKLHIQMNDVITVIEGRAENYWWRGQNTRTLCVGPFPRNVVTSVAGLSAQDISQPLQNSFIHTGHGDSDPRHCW
TSSK1(h) (human), sequence (Q9BXA7 whole entry): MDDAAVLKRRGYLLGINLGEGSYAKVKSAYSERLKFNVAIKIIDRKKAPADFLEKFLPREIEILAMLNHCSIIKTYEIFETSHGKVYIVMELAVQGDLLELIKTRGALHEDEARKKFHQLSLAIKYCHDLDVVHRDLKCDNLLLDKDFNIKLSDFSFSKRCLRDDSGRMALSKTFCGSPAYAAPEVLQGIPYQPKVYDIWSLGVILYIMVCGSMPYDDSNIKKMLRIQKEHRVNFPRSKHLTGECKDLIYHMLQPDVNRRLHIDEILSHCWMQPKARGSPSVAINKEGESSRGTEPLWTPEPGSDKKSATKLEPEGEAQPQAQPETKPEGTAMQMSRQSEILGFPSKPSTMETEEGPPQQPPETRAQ
PKCδ(h) (human), sequence (Q05655 whole entry, stated change not applied): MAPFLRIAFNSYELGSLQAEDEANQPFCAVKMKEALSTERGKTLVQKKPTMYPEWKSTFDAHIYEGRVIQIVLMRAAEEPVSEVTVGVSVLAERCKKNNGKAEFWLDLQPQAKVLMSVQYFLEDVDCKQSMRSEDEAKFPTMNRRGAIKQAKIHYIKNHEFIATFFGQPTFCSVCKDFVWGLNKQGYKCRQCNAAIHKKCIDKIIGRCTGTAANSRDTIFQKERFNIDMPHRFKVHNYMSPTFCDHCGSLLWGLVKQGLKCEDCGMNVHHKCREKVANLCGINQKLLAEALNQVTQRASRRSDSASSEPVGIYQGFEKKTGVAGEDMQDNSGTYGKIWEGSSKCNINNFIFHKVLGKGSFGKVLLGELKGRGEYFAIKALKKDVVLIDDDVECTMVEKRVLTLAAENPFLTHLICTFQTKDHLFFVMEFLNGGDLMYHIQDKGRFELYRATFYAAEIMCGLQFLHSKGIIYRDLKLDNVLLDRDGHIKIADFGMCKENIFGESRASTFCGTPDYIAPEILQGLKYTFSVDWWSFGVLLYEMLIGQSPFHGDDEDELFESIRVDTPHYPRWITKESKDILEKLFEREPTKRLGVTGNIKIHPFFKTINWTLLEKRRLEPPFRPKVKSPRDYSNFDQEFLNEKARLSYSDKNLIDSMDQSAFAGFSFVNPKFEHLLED
Txk(h) (human), sequence (P42681 whole entry): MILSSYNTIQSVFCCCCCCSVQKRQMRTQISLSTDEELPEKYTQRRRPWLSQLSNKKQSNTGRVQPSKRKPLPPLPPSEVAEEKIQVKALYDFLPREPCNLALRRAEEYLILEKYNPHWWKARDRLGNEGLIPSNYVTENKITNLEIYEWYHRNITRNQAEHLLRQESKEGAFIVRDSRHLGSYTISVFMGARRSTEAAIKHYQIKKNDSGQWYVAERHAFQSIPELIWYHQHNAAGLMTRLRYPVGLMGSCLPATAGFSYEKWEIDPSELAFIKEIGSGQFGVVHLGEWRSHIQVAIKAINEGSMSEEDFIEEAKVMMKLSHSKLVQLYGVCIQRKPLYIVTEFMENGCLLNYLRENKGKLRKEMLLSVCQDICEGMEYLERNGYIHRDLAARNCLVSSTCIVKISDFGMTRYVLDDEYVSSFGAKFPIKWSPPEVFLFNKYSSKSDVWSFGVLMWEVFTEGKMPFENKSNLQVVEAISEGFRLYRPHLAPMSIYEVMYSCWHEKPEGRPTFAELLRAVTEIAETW
GCK(h) (human), sequence (Q12851 whole entry): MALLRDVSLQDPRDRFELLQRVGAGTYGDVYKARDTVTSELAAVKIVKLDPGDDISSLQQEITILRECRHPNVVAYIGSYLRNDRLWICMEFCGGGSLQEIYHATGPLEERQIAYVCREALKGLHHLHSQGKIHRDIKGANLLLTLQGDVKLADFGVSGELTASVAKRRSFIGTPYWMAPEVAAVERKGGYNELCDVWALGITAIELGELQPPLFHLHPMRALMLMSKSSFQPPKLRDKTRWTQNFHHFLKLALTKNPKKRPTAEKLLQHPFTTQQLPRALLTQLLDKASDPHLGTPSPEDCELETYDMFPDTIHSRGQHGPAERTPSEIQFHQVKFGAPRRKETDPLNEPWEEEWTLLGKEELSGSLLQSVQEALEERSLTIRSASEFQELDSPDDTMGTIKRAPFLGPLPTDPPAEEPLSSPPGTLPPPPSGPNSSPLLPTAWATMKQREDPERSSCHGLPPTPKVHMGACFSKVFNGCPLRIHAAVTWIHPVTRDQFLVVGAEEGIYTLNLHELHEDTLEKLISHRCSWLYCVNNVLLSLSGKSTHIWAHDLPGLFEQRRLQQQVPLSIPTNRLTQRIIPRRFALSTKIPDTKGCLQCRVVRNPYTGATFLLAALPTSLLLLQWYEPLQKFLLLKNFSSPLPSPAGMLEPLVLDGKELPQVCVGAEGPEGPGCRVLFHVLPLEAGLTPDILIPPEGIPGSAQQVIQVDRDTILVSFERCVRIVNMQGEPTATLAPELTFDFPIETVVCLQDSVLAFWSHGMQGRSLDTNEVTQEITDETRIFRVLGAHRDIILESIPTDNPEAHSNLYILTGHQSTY
MSK1(h) (human), sequence (O75582 whole entry): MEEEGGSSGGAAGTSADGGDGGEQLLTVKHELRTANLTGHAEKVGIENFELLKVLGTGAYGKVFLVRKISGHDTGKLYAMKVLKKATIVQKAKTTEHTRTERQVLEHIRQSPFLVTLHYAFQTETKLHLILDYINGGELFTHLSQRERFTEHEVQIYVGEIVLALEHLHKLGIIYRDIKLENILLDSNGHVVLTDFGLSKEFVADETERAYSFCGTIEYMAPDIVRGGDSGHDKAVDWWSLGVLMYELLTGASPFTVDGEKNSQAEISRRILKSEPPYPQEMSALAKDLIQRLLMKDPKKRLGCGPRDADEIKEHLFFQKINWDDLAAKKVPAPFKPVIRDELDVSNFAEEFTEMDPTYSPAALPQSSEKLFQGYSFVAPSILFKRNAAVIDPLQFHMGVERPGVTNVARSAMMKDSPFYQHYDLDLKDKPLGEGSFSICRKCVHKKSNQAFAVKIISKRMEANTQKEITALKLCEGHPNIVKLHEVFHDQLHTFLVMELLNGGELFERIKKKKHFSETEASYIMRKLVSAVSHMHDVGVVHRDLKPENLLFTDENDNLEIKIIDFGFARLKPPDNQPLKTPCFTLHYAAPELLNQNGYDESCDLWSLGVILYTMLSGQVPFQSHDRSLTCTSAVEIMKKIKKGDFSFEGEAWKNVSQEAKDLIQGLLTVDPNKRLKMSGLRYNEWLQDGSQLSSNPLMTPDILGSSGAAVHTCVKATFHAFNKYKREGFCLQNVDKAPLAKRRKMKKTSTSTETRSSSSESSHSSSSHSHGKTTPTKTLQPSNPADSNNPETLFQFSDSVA

MMI-0100 (peptide)
% activity (LKB1(h) (human)): 111% | % activity (ErbB4(h) (human)): 73% | % activity (PKCδ(h) (human)): 100% | % activity (PrKX(h) (human)): 84% | % activity (MEK1(h) (human)): 86% | % activity (Flt1(h) (human)): 109% | % activity (eEF-2K(h) (human)): 113% | % activity (Haspin(h) (human)): 127% | % activity (TSSK2(h) (human)): 107% | % activity (Rsk1(h) (human)): 86% | % activity (MAPKAP-K2(h) (human)): 19% | % activity (PDGFRα(h) (human)): 104% | % activity (PKD2(h) (human)): 84% | % activity (PKCθ(h) (human)): 102% | % activity (MSK1(h) (human)): 52% | % activity (Rse(h) (human)): 109% | % activity (Src(T341M)(h) (human)): 98% | % activity (SAPK2a(h) (human)): 110% | % activity (FGFR2(h) (human)): 49% | % activity (mTOR(h) (human)): 102% | % activity (HIPK2(h) (human)): 98% | % activity (CaMKIIγ(h) (human)): 106% | % activity (CHK2(I157T)(h) (human)): 97% | % activity (PKBγ(h) (human)): 105% | % activity (Rsk3(h) (human)): 76% | % activity (ALK(h) (human)): 118% | % activity (Ron(h) (human)): 117% | % activity (DRAK1(h) (human)): 47% | % activity (CLK3(h) (human)): 108% | % activity (Ros(h) (human)): 107% | % activity (Mnk2(h) (human)): 94% | % activity (PKCα(h) (human)): 94% | % activity (Txk(h) (human)): 87% | % activity (Ax1(h) (human)): 81% | % activity (Ab1(M351T)(h) (human)): 128% | % activity (CDK1/cyclinB(h) (human)): 96% | % activity (EphB4(h) (human)): 62% | % activity (GCK(h) (human)): 98% | % activity (TSSK1(h) (human)): 99% | % activity (mTOR/FKBP12(h) (human)): 117% | % activity (ACK1(h) (human)): 106% | % activity (Pim-1(h) (human)): 44% | % activity (PAK5(h) (human)): 97% | % activity (SGK(h) (human)): 128% | % activity (NEK11(h) (human)): 102% | % activity (Snk(h) (human)): 94% | % activity (TLK2(h) (human)): 113% | % activity (PKA(h) (human)): 138% | % activity (IRR(h) (human)): 85% | % activity (Lck(h) (human)): 346% | % activity (GSK3α(h) (human)): 183% | % activity (EphA8(h) (human)): 181% | % activity (PKCβII(h) (human)): 102% | % activity (CaMKI(h) (human)): 13% | % activity (Ab1(Y253F)(h) (human)): 104% | % activity (MINK(h) (human)): 96% | % activity (ALK4(h) (human)): 124%

MMI-0200 (peptide)
% activity (LKB1(h) (human)): 99% | % activity (ErbB4(h) (human)): 82% | % activity (PKCδ(h) (human)): 101% | % activity (PrKX(h) (human)): 112% | % activity (MEK1(h) (human)): 116% | % activity (Flt1(h) (human)): 96% | % activity (eEF-2K(h) (human)): 136% | % activity (Haspin(h) (human)): 71% | % activity (TSSK2(h) (human)): 91% | % activity (Rsk1(h) (human)): 102% | % activity (MAPKAP-K2(h) (human)): 35% | % activity (PDGFRα(h) (human)): 108% | % activity (PKD2(h) (human)): 78% | % activity (PKCθ(h) (human)): 101% | % activity (MSK1(h) (human)): 50% | % activity (Rse(h) (human)): 88% | % activity (Src(T341M)(h) (human)): 56% | % activity (SAPK2a(h) (human)): 107% | % activity (FGFR2(h) (human)): 73% | % activity (mTOR(h) (human)): 110% | % activity (HIPK2(h) (human)): 102% | % activity (CaMKIIγ(h) (human)): 94% | % activity (CHK2(I157T)(h) (human)): 85% | % activity (PKBγ(h) (human)): 103% | % activity (Rsk3(h) (human)): 109% | % activity (ALK(h) (human)): 95% | % activity (Ron(h) (human)): 120% | % activity (DRAK1(h) (human)): 34% | % activity (CLK3(h) (human)): 76% | % activity (Ros(h) (human)): 86% | % activity (Mnk2(h) (human)): 106% | % activity (PKCα(h) (human)): 100% | % activity (Txk(h) (human)): 98% | % activity (Ax1(h) (human)): 99% | % activity (Ab1(M351T)(h) (human)): 119% | % activity (CDK1/cyclinB(h) (human)): 115% | % activity (EphB4(h) (human)): 131% | % activity (GCK(h) (human)): 99% | % activity (TSSK1(h) (human)): 98% | % activity (mTOR/FKBP12(h) (human)): 118% | % activity (ACK1(h) (human)): 97% | % activity (Pim-1(h) (human)): 18% | % activity (PAK5(h) (human)): 100% | % activity (SGK(h) (human)): 115% | % activity (NEK11(h) (human)): 95% | % activity (Snk(h) (human)): 109% | % activity (TLK2(h) (human)): 129% | % activity (PKA(h) (human)): 110% | % activity (IRR(h) (human)): 69% | % activity (Lck(h) (human)): 113% | % activity (GSK3α(h) (human)): 119% | % activity (EphA8(h) (human)): 133% | % activity (PKCβII(h) (human)): 100% | % activity (CaMKI(h) (human)): 21% | % activity (Ab1(Y253F)(h) (human)): 102% | % activity (MINK(h) (human)): 103% | % activity (ALK4(h) (human)): 152%
